Several values for one entry are separate records, joined by “and”; a condition that tells them apart may be missing. Equal values may be shown once. Entries after “also recorded” stand apart in the source; their conditions may differ.
Legend:
[1] = Small angle X-ray scattering (SAXS) of beta-casein micellar solutions; format: physicochemical; details: for aggregation number: pH 6.7, 0.05M NaCl
Experimental: Small Angle X-ray Scattering (SAXS): The small angle x-ray scattering equipment consisted of a SAXSess camera (Anton-Paar, Graz, Austria) connected to an x-ray generator (Philips, PW1730/10) operating at 40 kV and 50 mA with a sealed-tube Cu anode. A Göbel mirror was used to convert the divergent polychromatic x-ray beam into a focused line-shaped beam of Cu Kα radiation (λ=0.154 nm). The 2D scattering pattern was recorded by a PI-SCX fused fiber optic taper CCD camera from Princeton Instruments, which is a division of Roper Scientific, Inc. (Trenton, N.J., USA). The used CCD detector features a 2084×2084 array with 24×24 μm pixel size (chip size: 50×50 mm). The CCD was operated at −30° C. with 10° C. water-assisted cooling to reduce the thermally generated charge. Cosmic ray correction and background subtraction were performed on the 2D image before further data processing. The 2D image was integrated into the one-dimensional scattering function within a band of 10 mm. The measurement time was 30 min for each scattering curve (6 images of 5 minutes were taken to assist the cosmic ray correction).
Determination of the Beta-Casein Assemblies Molecular Weights.
The molecular weight of the scattering aggregates were calculated according to Eq. 1:
[formula] where M is the molecular weight, dΣ(0)/dΩ (cm^−1) the forward scattering intensity at q=0, c (g/cm^3) the beta-casein concentration, NA the Avogadro number, and ΔρM (cm/g) the scattering length difference per mass, given by: ΔρM=Δρ v (2)
The scattering length difference Δρ (cm^−2) was calculated using the known chemical composition of the protein and the solvent, and v (cm^3/g), the specific volume of the protein in the solution that was calculated via density measurement of the solvent and the solution. The micelle aggregation number was then calculated by dividing the molecular weight of the micelles determined with Eq. 1, by the molecular weight of a single protein molecule.
For a particle of arbitrary shape with a scattering density difference of Δρ(r), the pair distance distribution function p(r) (PDDF) is given by: p(r)=r^2Δ ρ^2(r) (3) where Δ ρ^2(r) is the convolution square of Δρ(r) averaged for all directions in space. The PDDF is related to the scattered intensity I(q) by a Fourier transformation, and it enables the determination of the overall shape and size of the scattering objects.
[formula] where q is the magnitude of the scattering vector q, defined as
[formula] λ is the wavelength of the incident radiation and θ is the angle between the scattered and incident beam. The function ƒ(r)=p(r)/r (6) is useful to identify flat plate-like particles, although it has no direct physical meaning. For lamellae, this function starts with a linearly increasing part and becomes almost flat when r is equal to the thickness of the lamella. For flat particles with a finite base area, the outer part decreases linearly because of boundary losses. The thickness of the lamella can then be read from the transition point. […] The standard error of the analytical ultracentrifugation data is 5%, and that of the Rg is 4%. The analysis supports the statistical significance and validity of the results.
• Characterization of the beta-casein micelles by SAXS: We have applied SAXS measurements to determine the shape and dimensions of the micelles at low pH and at neutral pH, more precisely, and to evaluate the micelle molecular weight (i.e., the aggregation number). The scattering curves of 20 mg/mL beta-casein in lactic acid solution (pH 2.6, IS 0.0022) at different temperatures are shown in FIG. 3a. […] Consequently, the calculated Pair Distance Distribution Functions (PDDF), are also similar (FIG. 3b). The maximum micelle dimension is approximately 25 nm at all temperatures. The area under the PDDF curve, which is proportional to the weight of one particle, is almost constant. To calculate the aggregation number, the density of the solvent and the solution was measured at various temperatures (Table 2). […]

[2] = Storage stability of beta-casein assembly solutions; format: physicochemical
Experimental: Preparation of beta-casein assemblies: weighted amounts of lyophilized bovine beta-casein are dissolved in low-pH solution (e.g. ˜6% by weight of lactic acid solution or hydrochloride acid solution, ˜pH 2.1), typically at concentrations ranging from 0.1 mg/mL up to at least 50 mg/ml, to the desired pH (2.5-2.8), below the pI. The pH can be adjusted to the desired values using appropriate buffers. Mixing is done at room temperature, and the solution is equilibrated at 4° C. for ˜36 hr, allowing complete solubilization and formation of the protein assemblies. Thereafter, the solutions can be held at any temperature between 1 and 60° C. Similarly, to prepare beta-casein micelles at neutral pH, weighted amounts of lyophilized protein are added to a buffer at neutral pH (e.g., HEPES buffer, or PBS), at concentration ranging from 0.1 mg/ml to ˜40 mg/ml. Complete solubilization of the protein is achieved within ˜36 hr, at 4° C. A transparent solution is obtained, containing unique nano-sized beta-casein assemblies. The protein solutions are filtered through a porous membrane of 0.45 micron pore size. The beta-casein concentration was determined by measuring the absorbance at 280 nm by an Ultrospec 2000 UV/Visible spectrophotometer (Pharmacia Biotech, England), using an extinction coefficient of 4.6(1%) mM^−1cm^−1. […]

B1: beta-casein: lyophilized bovine beta-casein (~24 kDa milk protein) self-assembled into nano-sized micelles at low or neutral pH (protein, UniProt P02666 16-224, looked up)
Beta-casein: RELEELNVPGEIVESLSSSEESITRINKKIEKFQSEEQQQTEDELQDKIHPFAQTQSLVYPFPGPIPNSLPQNIPPLTQTPVVVPPFLQPEVMGVSKVKEAMAPKHKEMPFPKYPVEPFTESQSLTLTDVENLHLPLPLLQSWMHQPHQPLPPTVMFPPQSVLSLSQSKVLPVPQKAVPYPQRDMPIQAFLLYQEPVLGPVRGPFPIIV
maximum micelle dimension ([1]; 20 mg/mL, pH 2.6, IS 0.0022, all temperatures 4-40 °C): approximately 25 nm
aggregation number ([1]; 20 mg/mL, 1 °C): 7
aggregation number ([1]; 20 mg/mL, 60 °C): 210
Nagg ([1]; pH 2.6, 4 °C, 2 wt % beta-casein, SAXS): 8
Nagg ([1]; pH 2.6, 16 °C, SAXS): 10
aggregation state ([1]; pH 2.6, 25 °C, 0.1 wt %): monomers
aggregation state ([1]; pH 2.6, 25 °C, 0.25 wt %): dimers
CMC ([1]; pH 2.6, 25 °C, SAXS): 0.1-0.2 wt %
Nagg ([1]; pH 2.6, 25 °C, SAXS): 11
Nagg ([1]; pH 2.6, 40 °C, SAXS): 9
thickness of the particles ([1]; pH 2.6, all temperatures, from f(r) transition point): ~3.5 nm
Micelle Dimensions ([1]; pH 2.6, as a function of temperature 4-40 °C): Constant
typical sizes of beta-casein micelles ([1]; pH 7.0, ionic strength 0.1, depending on protein concentration): 13-15 nm and 22-25 nm
colloidal / storage stability of sterile solution ([2]; sterile): at least several months; also recorded: colloidally stable for months
storage stability of the solution ([2]; stored at 4 °C): several weeks

— patent US8865222B2, “Beta-casein assemblies for enrichment of food and beverages and methods of preparation thereof” (Technion Research and Development Foundation Ltd., priority 2008, dated 2014)
